Like-named read-outs stand apart in the source and are kept apart here.
Tests used:
[1] = target: human C1q (Quidel) (human) (UniProt P02745); experiment: C1q ELISA
[2] = target: human C1q (Quidel) (human) (UniProt P02745); experiment: cell-based or functional assay
[3] = target: CD20 antigen on WIL2-S cells (UniProt P11836); experiment: flow cytometry, WIL2-S cells
[4] = target: human C1q (Quidel) (human) (UniProt P02745); experiment: C1q ELISA; remark: listed apart in the source
[5] = target: human C1q (Quidel) (human) (UniProt P02745); experiment: C1q ELISA; remark: listed apart in the source
[6] = target: human FcγRIIIA-F158 α subunit extracellular domain-6His-GST fusion (human) (UniProt P08637); experiment: ELISA, IgG:IgE hexamers on receptor-GST
[7] = target: human FcγRIIA-R131 α subunit extracellular domain-6His-GST fusion (human) (UniProt P12318); experiment: ELISA, IgG:IgE hexamers on receptor-GST
[8] = target: human FcγRIIB α subunit extracellular domain-6His-GST fusion (human) (UniProt P31994); experiment: ELISA, IgG:IgE hexamers on receptor-GST
[9] = target: human FcγRIA α subunit extracellular domain-His6-GST fusion (human) (UniProt P12314); experiment: FcγRI ELISA and THP-1 cells, averaged
[10] = target: human FcγRIIA-Arg131 α subunit extracellular domain-His6-GST fusion (human) (UniProt P12318); experiment: hexamer ELISA
[11] = target: human neonatal Fc receptor (FcRn), biotinylated (human) (UniProt P55899); experiment: FcRn ELISA, pH 6.0
[12] = target: human FcγRIIB α subunit extracellular domain-His6-GST fusion (human) (UniProt P31994); experiment: immune complex ELISA, E27 background
[13] = target: human FcγRIIA-R131 α subunit extracellular domain-His6-GST fusion (human) (UniProt P12318); experiment: ELISA, IgG:IgE hexamer on coated FcγRIIA-R131-GST; value carried over from Table 6, 7 or 8
[14] = target: human FcγRIIA-R131 α subunit extracellular domain-His6-GST fusion (human) (UniProt P12318); experiment: ELISA, IgG complex, receptor coated
[15] = target: human FcγRIIIA-Phe158 on cells (CHO cells stably transfected with α- and γ-chains; NK cells of Phe158/Phe158 donors) (human) (UniProt P08637); experiment: cell-based or functional assay
Chain of human FcγRIIIA-Phe158 on cells (CHO cells stably transfected with α- and γ-chains; NK cells of Phe158/Phe158 donors) (human) (P08637 17-254, chain 1 of 2): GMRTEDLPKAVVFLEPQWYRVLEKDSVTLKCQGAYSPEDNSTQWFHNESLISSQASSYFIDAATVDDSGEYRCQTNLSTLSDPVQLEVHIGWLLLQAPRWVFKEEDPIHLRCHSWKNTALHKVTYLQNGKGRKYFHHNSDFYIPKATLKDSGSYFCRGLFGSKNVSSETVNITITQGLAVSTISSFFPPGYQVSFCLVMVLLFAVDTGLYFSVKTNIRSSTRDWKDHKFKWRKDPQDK
Chain of human FcγRIIIA-Phe158 on cells (CHO cells stably transfected with α- and γ-chains; NK cells of Phe158/Phe158 donors) (human) (P30273 19-86, chain 2 of 2, further chain): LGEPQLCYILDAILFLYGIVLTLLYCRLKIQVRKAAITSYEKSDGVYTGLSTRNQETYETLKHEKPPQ

Chain of CD20 antigen on WIL2-S cells (P11836 whole entry): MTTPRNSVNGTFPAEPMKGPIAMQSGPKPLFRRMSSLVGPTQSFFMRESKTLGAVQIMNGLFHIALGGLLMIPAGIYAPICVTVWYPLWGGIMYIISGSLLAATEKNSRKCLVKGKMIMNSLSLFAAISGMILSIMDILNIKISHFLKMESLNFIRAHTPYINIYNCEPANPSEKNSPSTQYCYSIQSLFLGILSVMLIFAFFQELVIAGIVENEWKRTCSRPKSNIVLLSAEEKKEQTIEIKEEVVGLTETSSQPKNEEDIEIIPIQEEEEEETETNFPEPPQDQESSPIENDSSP
Chain of human C1q (Quidel) (human) (P02745 23-245, chain 1 of 3): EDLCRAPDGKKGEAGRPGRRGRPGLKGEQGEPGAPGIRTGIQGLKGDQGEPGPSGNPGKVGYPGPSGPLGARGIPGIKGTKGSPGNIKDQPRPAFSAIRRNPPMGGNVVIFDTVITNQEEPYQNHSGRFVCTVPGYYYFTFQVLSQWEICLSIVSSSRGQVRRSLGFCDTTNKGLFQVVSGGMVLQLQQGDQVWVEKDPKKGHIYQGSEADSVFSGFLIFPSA
Chain of human C1q (Quidel) (human) (P02746 28-253, chain 2 of 3, further chain): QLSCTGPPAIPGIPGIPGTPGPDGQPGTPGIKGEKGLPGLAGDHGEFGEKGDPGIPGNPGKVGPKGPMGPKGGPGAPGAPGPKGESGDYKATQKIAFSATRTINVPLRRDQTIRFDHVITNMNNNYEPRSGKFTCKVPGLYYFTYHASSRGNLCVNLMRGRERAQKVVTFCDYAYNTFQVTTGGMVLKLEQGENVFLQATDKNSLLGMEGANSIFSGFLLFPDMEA
Chain of human C1q (Quidel) (human) (P02747 29-245, chain 3 of 3, further chain): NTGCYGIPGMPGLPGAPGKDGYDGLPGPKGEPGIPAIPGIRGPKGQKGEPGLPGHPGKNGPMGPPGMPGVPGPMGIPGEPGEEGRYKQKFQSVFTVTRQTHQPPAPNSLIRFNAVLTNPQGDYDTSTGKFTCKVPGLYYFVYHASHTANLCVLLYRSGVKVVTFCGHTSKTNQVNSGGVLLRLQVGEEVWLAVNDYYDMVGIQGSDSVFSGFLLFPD
Chain of human FcγRIIA-R131 α subunit extracellular domain-6His-GST fusion (human) (P12318 other isoform, or with tags, fused parts or gaps, form in doubt): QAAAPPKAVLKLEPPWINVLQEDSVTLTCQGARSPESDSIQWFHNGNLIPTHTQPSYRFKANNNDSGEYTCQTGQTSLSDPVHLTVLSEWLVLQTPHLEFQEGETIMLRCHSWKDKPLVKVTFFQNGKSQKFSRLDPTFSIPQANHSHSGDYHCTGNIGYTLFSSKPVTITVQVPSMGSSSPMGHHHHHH
Chain of human FcγRIIA-R131 α subunit extracellular domain-His6-GST fusion (human) (P12318 other isoform, or with tags, fused parts or gaps, form in doubt): as above
Chain of human FcγRIIB α subunit extracellular domain-6His-GST fusion (human) (P31994 other isoform, or with tags, fused parts or gaps, form in doubt): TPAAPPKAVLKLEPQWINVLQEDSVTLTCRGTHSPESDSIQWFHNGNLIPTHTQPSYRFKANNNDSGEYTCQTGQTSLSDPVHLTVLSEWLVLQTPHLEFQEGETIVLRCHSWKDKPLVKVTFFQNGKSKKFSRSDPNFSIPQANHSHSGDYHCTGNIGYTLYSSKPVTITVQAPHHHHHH
Chain of human FcγRIA α subunit extracellular domain-His6-GST fusion (human) (P12314 other isoform, or with tags, fused parts or gaps): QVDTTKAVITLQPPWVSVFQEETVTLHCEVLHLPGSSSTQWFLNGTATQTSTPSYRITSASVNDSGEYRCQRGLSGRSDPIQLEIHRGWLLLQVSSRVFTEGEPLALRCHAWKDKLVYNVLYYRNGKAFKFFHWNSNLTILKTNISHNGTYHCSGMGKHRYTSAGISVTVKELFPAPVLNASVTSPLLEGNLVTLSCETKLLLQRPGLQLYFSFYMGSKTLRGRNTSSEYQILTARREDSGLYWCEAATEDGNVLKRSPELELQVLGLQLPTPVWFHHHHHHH
Chain of human neonatal Fc receptor (FcRn), biotinylated (human) (P55899 24-297 limits assumed, chain 1 of 2): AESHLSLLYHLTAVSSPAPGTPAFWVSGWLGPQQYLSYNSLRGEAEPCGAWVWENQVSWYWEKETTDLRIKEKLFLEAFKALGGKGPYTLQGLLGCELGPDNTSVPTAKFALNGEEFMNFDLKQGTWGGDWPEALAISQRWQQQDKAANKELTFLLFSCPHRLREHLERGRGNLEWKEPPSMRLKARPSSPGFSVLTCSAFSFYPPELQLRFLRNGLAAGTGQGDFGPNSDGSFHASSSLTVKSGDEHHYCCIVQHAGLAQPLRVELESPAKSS
Chain of human neonatal Fc receptor (FcRn), biotinylated (human) (P61769 21-119 limits assumed, chain 2 of 2, further chain): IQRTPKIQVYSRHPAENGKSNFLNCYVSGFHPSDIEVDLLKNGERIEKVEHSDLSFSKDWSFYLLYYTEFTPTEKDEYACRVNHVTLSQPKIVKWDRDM
Chain of human FcγRIIA-Arg131 α subunit extracellular domain-His6-GST fusion (human) (P12318 other isoform, or with tags, fused parts or gaps): as the sequence (P12318 other isoform, or with tags, fused parts or gaps, form in doubt) above
Chain of human FcγRIIB α subunit extracellular domain-His6-GST fusion (human) (P31994 other isoform, or with tags, fused parts or gaps): as the sequence (P31994 other isoform, or with tags, fused parts or gaps, form in doubt) above

With “C2B8 (human IgG1 constant region) A327 changed to glycine (antibody)” the increase in binding against wild type [1] was 50%.

Substance C2B8 E318A (antibody) has a CDC (% of wild type) [2] of 108, a decrease in binding against wild type [1] of 30% and a percentage of the wild type [3] of 89%.

With C2B8 E333A (antibody) the increase in binding against wild type [1] was 30%.

In the case of C2B8 E333S (antibody), the fold increase in binding against wild type [1] is reported as > 2 fold and the fold increase in binding against wild type [4] is reported as 2 fold.

In the case of C2B8 K320A (antibody), the CDC (% of wild type) [2] is reported as 108 and the percentage of the wild type [3] is reported as 102%.

Substance C2B8 K326A (antibody) has an increase in binding against wild type [1] of 30%.

In the case of C2B8 K326A-E333A (antibody), the CDC [2] is reported as 2 fold and the fold better binding than wild type [1] is reported as > 3 fold.

For C2B8 K326D (antibody), the fold increase in binding against wild type [1] was > 2 fold.

In the case of C2B8 K326E (antibody), the fold increase in binding against wild type [1] is reported as > 2 fold.

With C2B8 K326M (antibody) the fold increase in binding against wild type [1] was > 2 fold.

C2B8 K326M-E333S (antibody) was tested, and the CDC [2] was 2 fold and the fold better binding than wild type [1] was > 3 fold.

In the case of C2B8 K326W (antibody), the fold increase in binding against wild type [1] is reported as 5 fold and the fold increase in binding against wild type [5] is reported as > 2 fold.

With C2B8 P329A (antibody) the percentage of the wild type [3] was 112%.

With C2B8 P331A (antibody) the fold lower binding than wild type [1] was 60 fold and the percentage of the wild type [3] was 103%.

With “E27 IgG1 variant K320(339)R (IG2 172) (antibody)” the ratio to native IgG1 [6] was 0.68, the ratio to native IgG1 [7] was 0.71 and the ratio to native IgG1 [8] was 0.66.

Substance “E27 IgG1 variant K320(339)R (IG2 235) (antibody)” has a ratio to native IgG1 [6] of 0.86, a ratio to native IgG1 [7] of 1.24 and a ratio to native IgG1 [8] of 0.95.

For E27 IgG1 variant S267(280)T (antibody), the ratio to native IgG1 [6] was 0.05.

anti-IgE E27 IgG1 Asn297Ala (antibody) gave a ratio to native IgG1 [9] of 0.15.

In the case of “anti-IgE E27 IgG1 Glu233Pro/Leu234Val/Leu235Ala/Gly236deleted (antibody)”, the ratio to native IgG1 [10] is reported as 0.08 and the ratio to native IgG1 [11] is reported as 0.54.

In the case of anti-IgE E27 IgG1 Pro329Ala (antibody), the percentage of the wild type [12] is reported as 96%.

In the case of “anti-IgE E27 IgG1 variant Asp270Ala (antibody)”, the ratio of binding of the variant to that of native IgG1 (ratio (variant/native IgG1)) [13] is reported as 0.06.

With “anti-IgE E27 IgG1 variant S298(317)V (antibody)” the ratio of binding, variant/native IgG1 (mean) [14] was 0.11.

For “anti-p185HER2 IgG1 variant Ser298Ala/Glu333Ala/Lys334Ala (antibody)”, the ADCC, NK cells of Phe158/Phe158 donors [15] was > 100%.

— patent US7183387
